Tested on: Bacillus subtilis
Experiment: cleaved RNA product abundance (RNA/gDNA barcode ratio) relative to median wild-type variant (ratio to wild type); higher = more accumulation of the downstream cleavage product
Conditions: cleavage site: cggR-gapA (positions -7 to +36 mutated)
Summary of the method: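 Cleaved product abundance was measured with barcoded reporter mRNAs (truncated aprE or tetM) carrying mutagenized RNase Y cleavage-site windows in the B. subtilis chromosome. Cultures in LB at 37°C grew from OD600 0.0003 to 0.3. Gel-selected cleaved RNA was reverse transcribed and barcode-sequenced with genomic DNA barcodes, and the RNA:gDNA barcode ratio per construct was scaled to the median construct bearing the unmutated site.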

[1] = experiment (reporter, strain, medium): exp 4a: truncated aprE reporter, strain BJT201 with 2% xylose (RNase J1 expressed)
[2] = experiment (reporter, strain, medium): exp 2b: truncated aprE reporter, strain BJT200

Sequence | cleaved RNA product abundance [1] | cleaved RNA product abundance [2] | cleaved RNA product abundance (experiment (reporter, strain, medium): exp 6: tetM reporter, strain 168)
ACAGACGAAGGAGCCGCAAAGAATTTATTAAGGGATGAATAATCCCACAATATAAATATCTCTCACTTATTTAAA | 0.259 | – | –
ACAGACGAAGGAGCCGCAAAGAATTTATTAAGGGATGAATAATCCCCCAATATAAATATCTCTCACTTATTTAAA | 0.202 | 0.189 | –
ACAGACGAAGGAGCCGCAAAGAATTTATTAAGGGATGAATAATCCCTAAATATAAATATCTCTCACTTATTTAAA | 0.591 | 0.496 | –
ACAGACGAAGGAGCCGCAAAGAATTTATTAAGGGATGAATAATCCCTCAAAATAAATATCTCTCACTTATTTAAA | 0.273 | 0.198 | –
ACAGACGAAGGAGCCGCAAAGAATTTATTAAGGGATGAATAATCCCTCAACATAAATATCTCTCACTTATTTAAA | 0.365 | 0.298 | –
ACAGACGAAGGAGCCGCAAAGAATTTATTAAGGGATGAATAATCCCTCAATAAAAATATCTCTCACTTATTTAAA | 0.066 | – | –
ACAGACGAAGGAGCCGCAAAGAATTTATTAAGGGATGAATAATCCCTCAATAGAAATATCTCTCACTTATTTAAA | 0.0925 | – | –
ACAGACGAAGGAGCCGCAAAGAATTTATTAAGGGATGAATAATCCCTCAATATAAAAATCTCTCACTTATTTAAA | 0.532 | – | –
ACAGACGAAGGAGCCGCAAAGAATTTATTAAGGGATGAATAATCCCTCAATATAAACATCTCTCACTTATTTAAA | 0.683 | 0.291 | –
ACAGACGAAGGAGCCGCAAAGAATTTATTAAGGGATGAATAATCCCTCAATATAAATAACTCTCACTTATTTAAA | 0.544 | – | –
ACAGACGAAGGAGCCGCAAAGAATTTATTAAGGGATGAATAATCCCTCAATATAAATAGCTCTCACTTATTTAAA | 0.327 | – | –
ACAGACGAAGGAGCCGCAAAGAATTTATTAAGGGATGAATAATCCCTCAATATAAATATCTCTCACTTATTAAAG | 0.836 | – | –
ACAGACGAAGGAGCCGCAAAGAATTTATTAAGGGATGAATAATCCCTCAATATAAATATCTCTCACTTATTTAAA | 0.743 | 0.775 | 0.623
ACAGACGAAGGAGCCGCAAAGAATTTATTAAGGGATGAATAATCCCTCAATATAAATATTTCTCACTTATTTAAA | 0.259 | – | –
ACAGACGAAGGAGCCGCAAAGAATTTATTAAGGGATGAATAATCCCTCAATATAAATGTCTCTCACTTATTTAAA | 0.282 | – | –
ACAGACGAAGGAGCCGCAAAGAATTTATTAAGGGATGAATAATCCCTCAATATAAGTATCTCTCACTTATTTAAA | 0.216 | – | –
ACAGACGAAGGAGCCGCAAAGAATTTATTAAGGGATGAATAATCCCTCAATATAATTATCTCTCACTTATTTAAA | 0.354 | – | –
ACAGACGAAGGAGCCGCAAAGAATTTATTAAGGGATGAATAATCCCTCAATATACATATCTCTCACTTATTTAAA | 0.606 | – | –
ACAGACGAAGGAGCCGCAAAGAATTTATTAAGGGATGAATAATCCCTCAATATAGATATCTCTCACTTATTTAAA | 0.431 | – | –
ACAGACGAAGGAGCCGCAAAGAATTTATTAAGGGATGAATAATCCCTCAATATATATATCTCTCACTTATTTAAA | 0.46 | 0.649 | –
ACAGACGAAGGAGCCGCAAAGAATTTATTAAGGGATGAATAATCCCTCAATATTAATATCTCTCACTTATTTAAA | – | 0.109 | –
ACAGACGAAGGAGCCGCAAAGAATTTATTAAGGGATGAATAATCCCTCAATCTAAATATCTCTCACTTATTTAAA | 0.102 | – | –
ACAGACGAAGGAGCCGCAAAGAATTTATTAAGGGATGAATAATCCCTCAATTTAAATATCTCTCACTTATTTAAA | 0.0947 | 0.154 | –
ACAGACGAAGGAGCCGCAAAGAATTTATTAAGGGATGAATAATCCCTCACTATAAATATCTCTCACTTATTTAAA | 0.283 | 0.193 | –
ACAGACGAAGGAGCCGCAAAGAATTTATTAAGGGATGAATAATCCCTCATTATAAATATCTCTCACTTATTTAAA | 0.377 | 0.278 | –
